Laboratory results: the supplement of paper PMC11865577

Key:
Test in all cases: pull-down binding Z-score (relative to library population); higher = stronger binding
Settings in all cases: RNA library: Library-2
[1] = test system: TO-3-N3 (biotin conjugate)
Method in brief: (§1)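 A heat-folded, dye-end-labelled (Cy5 or Cy3) RNA library (1 μg, phosphate/NaCl/KCl buffer) was exposed for 60 min at 25 °C to streptavidin beads holding 100 pmol of biotin-conjugated small molecule. RNA retained on the beads was eluted in hot SDS and hybridised to a DNA barcode microarray for 20 h at 55.5 °C. Binding scores were Z-scores against the library mean and standard deviation, calculated after subtracting beads alone and taking trimmed means of replicate probes.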

[2] = test system: TO-3-N3-2 (biotin conjugate)
Method in brief: as §1

[3] = test system: TO-N3 (biotin conjugate)
Method in brief: as §1

[4] = test system: TO-N3-2 (biotin conjugate)
Method in brief: as §1

Sequence | pull-down binding Z-score [1] | pull-down binding Z-score [2] | pull-down binding Z-score [3] | pull-down binding Z-score [4]
CUAUAGUAGCUGGUGGUAUUGUAGCUAUCGUAG [SHAPE_invitro_SARS-CoV-2_Motif_182] | 0.653 | 0.54 | 0.874 | 1.04
CUAUCAGGCCGGUAG [DMSMaPseq_invitro_SARS-CoV-2_Motif_406] | -0.61 | -0.579 | -0.672 | -0.0779
CUAUUCAAACAAUUGUUGAGGUUCAACCUCAAUUAGAGAUGGAACUUACACCAGUUGUUCAGACUAUUGAAGUGAAUAGUUUUAG [SHAPE_invivo_SARS-CoV-2_Multi_36_ComplexLevel_1] | -0.49 | -0.292 | -0.421 | -0.461
CUCAAACCCGUCCUUGAUUGGCUUGAAGAGAAGUUUAAGGAAGGUGUAGAG [DMSMaPseq_invitro_SARS-CoV-2_Motif_41] | -0.564 | -0.174 | -0.455 | -0.0884
CUCAGAGUAGAAAUUUACAAGAAUUUAAACCCAGGAG [DMSMaPseq_invitro_SARS-CoV-2_Motif_359] | -0.646 | -0.119 | -0.463 | -0.531
CUCAGUCCAAGAUGGUAUUUCUACUACCUAGGAACUGGG [SHAPE_invivo_SARS-CoV-2_Motif_544] | -0.642 | -0.217 | -0.646 | -0.627
CUCCAAAAAGAG | -0.901 | -0.675 | -1.21 | -1.2
CUCCAGCACGGAG [IAV_invivo_PB2_1_Motif_21+IAV_invivo_PB2_1_Motif_21] | -0.457 | -0.425 | -0.877 | -1.17
CUCCAGGAGGGG [IAV_invivo_PB2_1_Motif_10+IAV_invivo_PB2_1_Motif_10] | -0.481 | -0.312 | -0.668 | -0.309
CUCCUUUGAUGGUUGCAUACAUGUUGGAG [IAV_invivo_PB2_1_Motif_8+IAV_invivo_PB2_1_Motif_8] | -0.359 | -0.208 | -0.689 | -0.427
CUCGUCUAUCUUCUGCAGGCUGCUUACGGUUUCGUCCGUGUUGCAGCCGAUCAUCAGCACAUCUAGGUUUCGUCCGGGUGUGACCGAAAGGUAAGAUGGAGAG | -0.0693 | -0.556 | -0.000928 | 0.408
CUCGUCUAUCUUCUGCAGGCUGCUUACGGUUUCGUCCGUGUUGCAGCCGAUCAUCAGCACAUCUAGGUUUUGUCCGGGUGUGACCGAAAGGUAAGAUGGAGAG | -0.827 | -0.563 | -0.836 | -0.32
CUCUAUGACAAACUUGUUUCAAGCUUUUUGGAAAUGAAGAGUGAAAAGCAAGUUGAACAAAAGAUCGCUGAG | -0.302 | -0.291 | -0.314 | -0.00802
CUCUCAUCGAUCUCCAAGAACUUGGAAAGUAUGAGCAG [SHAPE_invitro_SARS-CoV-2_Motif_456] | -0.197 | -0.286 | -0.095 | 0.281
CUCUCAUUUUGUUAACUUAGACAACCUGAGAG | -0.827 | -0.35 | -1.13 | -1.2
CUCUGGAACACUUUUACAAGACUUCAGAG [SHAPE_invivo_SARS-CoV-2_Motif_367] | -0.0115 | -0.651 | -0.338 | -0.513
CUCUUGAGUGCAUUAAAGACCUUCUAGCACGUGCUGGUAAAGCUUCAUGCACUUUGUCCGAACAACUGGACUUUAUUGACACUAAGAG [SHAPE_invitro_SARS-CoV-2_Multi_69_ComplexLevel_1] | -0.706 | -0.197 | -0.515 | 0.585
CUCUUGUAAUGUAAACAGAUUUAAUGUUGCUAUUACCAGAG | 0.0416 | -0.0635 | 0.0725 | -0.0897
CUGAAAAAUGGGAAUCUGGAGUAAAAGACUGUGUUGUAUUACACAGUUACUUCACUUCAGACUAUUACCAG | -0.376 | -0.182 | -0.329 | -0.48
CUGACAAAGUUUUCAG | 0.631 | -0.329 | 0.341 | -0.543
CUGACUUAACAAAGCCUUACAUUAAGUGGGAUUUGUUAAAAUAUGACUUCACGGAAGAGAGGUUAAAACUCUUUGACCGUUAUUUUAAAUAUUGG | -0.707 | -0.143 | -0.517 | -0.193
CUGAUCCUAGUUUUCUGGGUAG [SHAPE_invivo_SARS-CoV-2_Motif_108] | -0.135 | -0.369 | -0.0828 | -0.359
CUGCACUGUUAGCGGGUACAAUCACUUCUGGUUGGACCUUUGGUGCAG [SHAPE_invitro_SARS-CoV-2_Motif_437] | -0.428 | -0.189 | -0.574 | -0.738
CUGCAGAUGCAG [IAV_invivo_HA_4_Motif_2+IAV_invivo_HA_4_Motif_2] | -0.112 | -0.317 | -0.419 | -1.28

Sequence | pull-down binding Z-score [1] | pull-down binding Z-score [2] | pull-down binding Z-score [3] | pull-down binding Z-score [4]
CUGCCUAUAUGGAAG | -0.492 | -0.364 | -0.773 | -0.645
CUGCUUUUGGCUUAGUUGCAG | 0.285 | 0.206 | 0.125 | -0.231
CUGGAAUUGCCGUUUUAG [SHAPE_invivo_SARS-CoV-2_Motif_210] | 0.0793 | -0.112 | -0.0237 | -0.115
CUGGACUCUAAAUAGAAACCAACCUGCUGCAACAGCAUUGGCCAACACAAUAGAAGUGUUCAGAUCAAAUGGCCUCACGGCCAAUGAGUCUGG | -0.791 | -0.486 | -0.231 | 0.269
CUGGCAGUAACCAG [SHAPE_invivo_SARS-CoV-2_Motif_538] | -0.215 | -0.422 | -0.233 | -0.733
CUGGGAAACUGUUAAAAUUCAGUGGUCCCAG [IAV_invivo_PB2_1_Motif_27+IAV_invivo_PB2_1_Motif_27] | -0.682 | -0.0981 | -0.972 | -0.97
CUGGGCCAUAAGGACCAG [IAV_invivo_NP_5_Motif_20+IAV_invivo_NP_5_Motif_20] | -0.0792 | -0.477 | -0.418 | -0.786
CUGGGGGCAAUCAGUUUCUGG [IAV_invivo_HA_4_Motif_20+IAV_invivo_HA_4_Motif_20] | 1.05 | -0.0228 | 0.946 | -0.107
CUGGUCCAUGCUCAUACCCAAGCAGAAAGUGGCAGGCCCUCUUUGUAUCAGAAUGGACCAG [IAV_invivo_NS1_NEP_8_Motif_8+IAV_invivo_NS1_NEP_8_Motif_8] | -0.528 | -0.24 | -0.453 | 0.562
CUGUAGCUGCAUUUCACCAAGAAUGUAGUUUACAG [DMSMaPseq_invitro_SARS-CoV-2_Motif_500] | 0.437 | -0.0203 | 0.121 | -0.632
CUGUCACUAAG | -0.404 | -0.0755 | -0.36 | -0.584
CUGUCAUGGAAGCAAGUACUGGCAG [IAV_invivo_PA_3_Motif_16+IAV_invivo_PA_3_Motif_16] | 0.591 | 0.12 | 0.596 | 0.323
CUGUCCAAGACAUGUGAUCUGCACCUCUGAAGACAUGCUUAACCCUAAUUAUGAAGAUUUACUCAUUCGUAAGUCUAAUCAUAAUUUCUUGGUACAG | -0.274 | -0.739 | -0.347 | -0.0124
CUGUGGGUUUUACACUUAAAAACACAG [DMSMaPseq_invitro_SARS-CoV-2_Motif_239] | -0.233 | -0.131 | -0.32 | -0.754
CUGUUAAUGUAGCAUUUGAGCUUUGGGCUAAGCGCAACAUUAAACCAG | 0.0322 | -0.268 | 0.38 | 0.335
CUGUUCCACCAUUGAAGAGCUCAG [IAV_invivo_PB1_2_Motif_38+IAV_invivo_PB1_2_Motif_38] | -0.372 | -0.178 | 0.134 | 0.457
CUGUUGAUUCAUCACAG | 1.37 | 0.174 | 1.14 | -0.421
CUGUUGGUACCAAUUUACCUUUACAGCUAGGUUUUUCUACAGGUGUUAACCUAGUUGCUGUACCUACAG | -0.959 | -0.514 | -1.16 | -1.02
CUGUUUGGAUGACAG | -0.461 | -0.753 | -0.871 | -1.01
CUGUUUUUCAG | -0.739 | -0.661 | -1.23 | -1.53
CUUACUGACAAUGUAUACAUUAAAAAUGCAGACAUUGUGGAAG [DMSMaPseq_invitro_SARS-CoV-2_Motif_59] | -0.453 | -0.18 | -0.328 | -0.455
CUUAGCUGUCUUUGAUAAAAAUCUCUAUGACAAACUUGUUUCAAGCUUUUUGGAAAUGAAGAGUGAAAAGCAAGUUGAACAAAAGAUCGCUGAG [SHAPE_invivo_SARS-CoV-2_Motif_73] | 0.216 | 0.0166 | 0.0191 | 0.552
CUUAGGGACAACCUUGAACCUGGG [IAV_invivo_PA_3_Motif_29+IAV_invivo_PA_3_Motif_29] | -0.637 | -0.446 | -0.557 | 0.0467
CUUAGUUUUAAG [DMSMaPseq_invitro_SARS-CoV-2_Motif_263] | -0.781 | -0.268 | -1.02 | -1.26
